# Data taken from US20200199241A1 (Chugai, published 2020).
# Where two headings read alike, the source gives them in different places.
# T1: human FcγRIIa(H) (human, UniProt P12318 36-217)
# T1 construct: also called hFcgRIIa(H); FcγRIIa type H
# T1 sequence: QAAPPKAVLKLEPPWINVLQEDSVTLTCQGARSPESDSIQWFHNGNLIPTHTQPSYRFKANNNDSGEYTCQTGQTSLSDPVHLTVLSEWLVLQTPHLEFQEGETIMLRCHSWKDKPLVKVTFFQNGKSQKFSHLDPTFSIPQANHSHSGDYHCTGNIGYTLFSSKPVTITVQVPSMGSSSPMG
# T2: human FcγRIIa(R) (human, UniProt P12318 36-217)
# T2 construct: also called hFcgRIIa(R); FcγRIIa type R
# T2 chain: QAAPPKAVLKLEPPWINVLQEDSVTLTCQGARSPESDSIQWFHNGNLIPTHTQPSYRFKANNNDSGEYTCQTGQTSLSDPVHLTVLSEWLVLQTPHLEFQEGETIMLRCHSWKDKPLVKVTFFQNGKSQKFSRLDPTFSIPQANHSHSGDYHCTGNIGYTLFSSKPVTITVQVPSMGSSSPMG
# T3: human FcγRIIb (human, UniProt P31994 43-217, limits assumed)
# T3 construct: also called hFcgRIIb; FcγIIB
# T3 sequence: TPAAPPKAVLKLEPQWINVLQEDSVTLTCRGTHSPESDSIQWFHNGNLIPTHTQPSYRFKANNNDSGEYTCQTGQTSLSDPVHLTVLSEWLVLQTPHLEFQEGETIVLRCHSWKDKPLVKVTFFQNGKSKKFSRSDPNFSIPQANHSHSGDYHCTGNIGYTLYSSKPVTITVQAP
# Tests used:
# human FcγRIIa(H) [1] = molecular target: T1, human FcγRIIa(H); assay: SPR, antibody captured by Protein L, human FcγR as analyte, pH 7.4, 25 C
# human FcγRIa [2] = molecular target: T4, human FcγRIa (human, UniProt P12314 16-292, limits assumed); assay: as above
# T4 construct: also called hFcgRIa; hFcgRI
# T4 sequence (P12314 16-292 limits assumed): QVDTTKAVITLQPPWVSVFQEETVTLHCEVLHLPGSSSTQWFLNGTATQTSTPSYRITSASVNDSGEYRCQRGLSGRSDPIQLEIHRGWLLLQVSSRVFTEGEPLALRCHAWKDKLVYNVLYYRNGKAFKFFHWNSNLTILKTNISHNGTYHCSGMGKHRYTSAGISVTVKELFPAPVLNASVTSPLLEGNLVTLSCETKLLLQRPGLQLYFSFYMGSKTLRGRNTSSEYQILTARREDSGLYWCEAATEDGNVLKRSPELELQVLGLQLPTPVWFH
# human FcγRIIa(R) [3] = molecular target: T2, human FcγRIIa(R); assay: as above
# human FcγRIIb [4] = molecular target: T3, human FcγRIIb; assay: as above
# [5] = molecular target: T5, human FcRn (soluble human FcRn complexed with β2-microglobulin) (human, UniProt P61769 21-119, limits assumed); assay: SPR, antibody captured by Protein L, human FcRn as analyte, pH 7.0, 25 C
# T5 construct: also called hFcRn
# T5 sequence (chain, as listed by the source limits assumed, chain 1 of 2): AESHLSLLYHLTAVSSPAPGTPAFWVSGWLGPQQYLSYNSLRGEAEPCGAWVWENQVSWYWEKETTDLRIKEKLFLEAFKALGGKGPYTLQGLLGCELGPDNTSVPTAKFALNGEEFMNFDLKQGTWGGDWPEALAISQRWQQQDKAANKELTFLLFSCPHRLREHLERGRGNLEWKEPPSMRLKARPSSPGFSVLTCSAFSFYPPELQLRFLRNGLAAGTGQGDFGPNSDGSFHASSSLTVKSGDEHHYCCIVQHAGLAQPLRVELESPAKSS
# T5 sequence (P61769 21-119 limits assumed, chain 2 of 2): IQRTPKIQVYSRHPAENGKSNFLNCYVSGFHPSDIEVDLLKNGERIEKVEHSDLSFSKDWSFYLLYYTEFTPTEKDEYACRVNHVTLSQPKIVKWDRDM
# [6] = molecular target: T5, human FcRn (soluble human FcRn …); assay: as above; remark: listed apart in the source
# human FcγRIIa(H) [7] = molecular target: T1, human FcγRIIa(H); assay: SPR, antibody captured by Protein L, human FcγR as analyte, pH 7.4, 25 C; remark: listed apart in the source
# human FcγRIa [8] = molecular target: T4, human FcγRIa; assay: as above; remark: listed apart in the source
# human FcγRIIa(R) [9] = molecular target: T2, human FcγRIIa(R); assay: as above
# human FcγRIIb [10] = molecular target: T3, human FcγRIIb; assay: as above; remark: listed apart in the source
# [11] = molecular target: T6, human FcRn (complex with human β2-microglobulin) (human, UniProt P61769 21-119, limits assumed); assay: hFcRn KD, method not given
# T6 construct: soluble human FcRn complexed with β2-microglobulin was used; also called hFcRn
# T6 sequence (chain, as listed by the source limits assumed, chain 1 of 2): as the sequence (chain, as listed by the source limits assumed, chain 1 of 2) above
# T6 sequence (P61769 21-119 limits assumed, chain 2 of 2): as the sequence (P61769 21-119 limits assumed, chain 2 of 2) above
Binder,BINDING AMOUNT (RU) (human FcγRIIa(H) [1]),BINDING AMOUNT (RU) (human FcγRIa [2]),BINDING AMOUNT (RU) (human FcγRIIa(R) [3]),BINDING AMOUNT (RU) (human FcγRIIb [4]),Kd [5] [nM],Kd [6] [nM],BINDING AMOUNT (RU) (human FcγRIIa(H) [7]),BINDING AMOUNT (RU) (human FcγRIa [8]),BINDING AMOUNT (RU) (human FcγRIIa(R) [9]),BINDING AMOUNT (RU) (human FcγRIIb [10]),Kd [11] [nM]
"VH3/L(WT)-IgG1-F698 (antibody, name in EU numbering, copies: 2 + 2) heavy: QVQLQESGPGLVKPSETLSLTCAVSGHSISHDHAWSWVRQPPGEGLEWIGFISYSGITNYNPSLQGRVTISRDNSKNTLYLQMNSLRAEDTAVYYCARSLARTTAMDYWGEGTLVTVSSASTKGPSVFPLAPSSKSTSGGTAALGCLVKDYFPEPVTVSWNSGALTSGVHTFPAVLQSSGLYSLSSVVTVPSSSLGTQTYICNVNHKPSNTKVDKKVEPKSCDKTHTCPPCPAPELLGGPSVFLFPPKPKDTLYISRTPEVTCVVVDVSHEDPEVKFNWYVDGVEVHEAKTKPREEQYNSTYRVVSVLQVLHADWLNGKEYKCKVSNKALPAPIEKTISKAKGQPREPQVYTLPPSRDELTKNQVSLTCLVKGFYPSDIAVEWESNGQPENNYKTTPPVLDSDGSFFLYSKLTVDKSRWQQGNVFSCSVMHEALHYHYTQKSLSLSP light: not shown",116,392,117,42.1,22,22,116,392,117,42.1,–
"antibody with heavy chain VH3-IgG1-FA6a (Heavy Chain A) (antibody, T250V/M252Y/T307Q/V308P/Q311A/D356K/E357K/N434Y/Y436V) heavy: QVQLQESGPGLVKPSETLSLTCAVSGHSISHDHAWSWVRQPPGEGLEWIGFISYSGITNYNPSLQGRVTISRDNSKNTLYLQMNSLRAEDTAVYYCARSLARTTAMDYWGEGTLVTVSSASTKGPSVFPLAPSSKSTSGGTAALGCLVKDYFPEPVTVSWNSGALTSGVHTFPAVLQSSGLYSLSSVVTVPSSSLGTQTYICNVNHKPSNTKVDKKVEPKSCDKTHTCPPCPAPELLGGPSVFLFPPKPKDVLYISRTPEVTCVVVDVSHEDPEVKFNWYVDGVEVHNAKTKPREEQYNSTYRVVSVLQPLHADWLNGKEYKCKVSNKALPAPIEKTISKAKGQPREPQVYTLPPSRKKLTKNQVSLTCLVKGFYPSDIAVEWESNGQPENNYKTTPPVLDSDGSFFLYSKLTVDKSRWQQGNVFSCSVMHEALHYHVTQKSLSLSP light: not shown",–,–,–,–,–,–,–,–,–,–,11
